The labels stand for the following.
B1: Azoarcus group I ribozyme (parent)
chain: GUGCCUUGCGCCGGGAAACCACGCAAGGGAUGGUGUCAAAUUCGGCGAAACCUAAGCGCCCGCCCGGGCGUAUGGCAACGCCGAGCCAAGCUUCGGCGCCUGCGCCGAUGAAGGUGUAGAGACUAGACGGCACCCACCUAAGGCAAACGCUAUGGUGAAGGCAUAGUCCAGGGAGUGGCGAAAGUCACACAAACCGG

The text below walks through data of the RNAGym collection of RNA variant scans (doi:10.1093/molbev/msab373).

The variants in the data set derive from B1. The experiment in a line: reverse-splicing fitness (ratio to wild type); higher = more active; in vitro selection; Mg2+ level not given. The method, boiled down:
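An in vitro group I ribozyme library with randomized positions was T7-transcribed and gel-purified. In triplicate, 10 pmol RNA in EPPS pH 7.5 was reacted with 50 pmoles of a 30-nt RNA substrate for 1 h at 37 °C across several added MgCl2 levels (1–48 mM), then stopped with EDTA. Products were reverse transcribed from a substrate-complementary primer, PCR-amplified and sequenced (HiSeq 4000). Fitness is a variant's read proportion after selection over that before, normalised to wild type.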
Consider C82A A111C A145G C150U U176G, for which the reverse-splicing fitness turned out to be 0.0141.
With C82A A111C A145G C150A C169G U176G the figure was 0.0087.
With C82A A111C A145G C150A C169G U176A the figure was 0.0152; with C82A A111C A145G C150A C169G U176C, 0.0253; with C82A A111C A145U C150A C169A, 0.00982.
With C82A A111C A145U C150A C169G the figure was 0.00915; with C82A A111C A145U C150A C169U, 0.0123; with C82A A111C A145U C150G C169G U176G, 0.00861.
On to C82A A111C A145U C150G C169G U176C, for which the reverse-splicing fitness came to 0.0061.
In the case of C82A A111C A145U C150G C169G U176A it was 0.00679; in that of C82A A111C A145G C150A C169U U176A, 0.0149; in that of C82A A111C A145G C150A C169U U176C, 0.0158.
In the case of C82A A111C A145G C150A C169U U176G it was 0.00882; in that of C82A A111C A145G C169A U176C, 0.029; in that of C82A A111C A145G C169A U176A, 0.0211.
Take C82A A111C A145G C169A U176G: the reverse-splicing fitness is 0.0069.
With C82A A111C A120U C150A C169A U176A the figure was 0.00546; with C82A A111C A120U C150A C169A U176G, 0.00277; with C82A A111C A120U C150A C169A U176C, 0.00418.
In the case of C82A A111C A145C C150A C169A U176G it was 0.0103.
With C82A A111C A145C C150A C169A U176A the figure was 0.015.
For C82A A111C A145C C150A C169A U176C, the reverse-splicing fitness worked out at 0.0113.
In the case of C82A A111C A120U A145U U176A it was 0.00697.
With C82A A111C A120U A145U U176C the figure was 0.0103.
In the case of C82A A111C A120U A145U U176G it was 0.00339; in that of C82A A111C C150G C169U U176G, 0.00629.
For the variant C82A A111C C150G C169U U176C, the reverse-splicing fitness amounted to 0.0137.
For the variant C82A A111C C150G C169U U176A, the reverse-splicing fitness came out at 0.0073.
With C82A A111C A145G C150G C169A the figure was 0.00852; with C82A A111C A145G C150G C169U, 0.00803.
In the case of C82A A111C A145G C150G C169G it was 0.00662; in that of C82A A111C A145U C150U C169G, 0.00899; in that of C82A A111C A145U C150U C169A, 0.00867.
With C82A A111C A145U C150U C169U the figure was 0.0128; with C82A A111C A145C C150G C169U U176C, 0.0112.
On to C82A A111C A145C C150G C169U U176G, for which the reverse-splicing fitness was found to be 0.00706.
In the case of C82A A111C A145C C150G C169U U176A it was 0.00753; in that of C82A A111C A145C C150G C169G U176C, 0.00759.
With C82A A111C A145C C150G C169G U176G the figure was 0.00714.
In the case of C82A A111C A145C C150G C169G U176A it was 0.00778.
On to C82A A111C A145U C150U C169G U176G, for which the reverse-splicing fitness came to 0.00855.
With C82A A111C A145U C150U C169G U176A the figure was 0.0143; with C82A A111C A145U C150U C169G U176C, 0.0179; with C82A A111C A145C C150U C169G U176G, 0.00845.
In the case of C82A A111C A145C C150U C169G U176C it was 0.0195; in that of C82A A111C A145C C150U C169G U176A, 0.0253; in that of C82A A111C A120U U176G, 0.00382.
As for C82A A111C A120U U176C, the reverse-splicing fitness was determined as 0.0115.
In the case of C82A A111C A120U U176A it was 0.00732; in that of C82A A111C C150U C169G U176C, 0.0175.
With C82A A111C C150U C169G U176A the figure was 0.013; with C82A A111C C150U C169G U176G, 0.00899; with C82A A111C A145U C169G U176C, 0.0193.
With C82A A111C A145U C169G U176A the figure was 0.0124; with C82A A111C A145U C169G U176G, 0.00756.
Take C82A A111C A145U C150A C169A U176A: the reverse-splicing fitness turned out to be 0.0148.
With C82A A111C A145U C150A C169A U176G, the reverse-splicing fitness came out at 0.00891.
In the case of C82A A111C A145U C150A C169A U176C it was 0.0143; in that of C82A A111G A120C A145C C150A C169A U176C, 0.0105.
With C82A A111G A120C A145C C150A C169A U176A the figure was 0.0178.
With C82A A111C C150U C169A U176A the figure was 0.0146.
For the variant C82A A111C C150U C169A U176G, the reverse-splicing fitness was 0.00801.
In the case of C82A A111C C150U C169A U176C it was 0.0125.
With C82A A111C A145G C150G C169U U176C the figure was 0.0116.
As for C82A A111C A145G C150G C169U U176A, the reverse-splicing fitness was determined as 0.0112.
With C82A A111C A145G C150G C169U U176G the figure was 0.00666.
Consider C82A A111C A145G U176G, for which the reverse-splicing fitness worked out at 0.017.
As to C82A A111C A145G U176C, the reverse-splicing fitness turned out to be 0.0992.
In the case of C82A A111C A145G U176A it was 0.0768; in that of C82A A111C A145G C150G C169A U176A, 0.0119.
With C82A A111C A145G C150G C169A U176C the figure was 0.0134; with C82A A111C A145G C150G C169A U176G, 0.00877; with C82A A111C A120U C169A U176C, 0.0037.
With C82A A111C A120U C169A U176A the figure was 0.00417.
For C82A A111C A120U C169A U176G, the reverse-splicing fitness stood at 0.00184.
With C82A A111C A145U C150A C169U U176A the figure was 0.0155.
With C82A A111C A145U C150A C169U U176G the figure was 0.00853; with C82A A111C A145U C150A C169U U176C, 0.0167.
In the case of C82A A111C A145G C169G U176G it was 0.00836; in that of C82A A111C A145G C169G U176C, 0.0335.
Turning to C82A A111C A145G C169G U176A, the reverse-splicing fitness worked out at 0.0221.
With C82A A111C C150U C169G the figure was 0.00783; with C82A A111C C150U C169A, 0.0115.
For the variant C82A A111C C150U C169U, the reverse-splicing fitness turned out to be 0.0128.
